Each block holds one binder with its values, some of them ahead of it.
Tests used:
[1] = target: DnaK75-RNC, ribosome-nascent-chain complex carrying a 75 amino acid-long nascent chain of DnaK (not stated | E. coli) (UniProt P0A6Y8)
[2] = target: RNaseH75-RNC, ribosome-nascent-chain complex carrying a 75 amino acid-long nascent chain of RNaseH (not stated | E. coli) (UniProt P0A7Y4)
[3] = target: TolB75-RNC, formylated ribosome-nascent-chain complex carrying the 75 N-terminal amino acids of TolB (not stated | E. coli) (UniProt P0A855)
[4] = target: proOmpA75-RNC, ribosome-nascent-chain complex carrying a 75 amino acid-long nascent chain of proOmpA (not stated | E. coli) (UniProt P0A910)
[5] = target: vacant 70S ribosomes from E. coli MRE600 (E. coli); test: fluorescence polarisation; equilibrium titration of PDF(Bpy) (200 nM) with 70S ribosomes; fluorescence anisotropy; 10 °C; corrected for light scattering; hyperbolic fit
[6] = target: TolB75-RNC after deformylation of the nascent chain by PDF (not stated | E. coli) (UniProt P0A855); test: stopped-flow fluorescence kinetics (chase); preformed 70S-PDF(Bpy) or RNC-PDF(Bpy) complex mixed with excess unlabeled PDF (15 µM); Bodipy fluorescence; buffer A; 10 °C; single-exponential fit
[7] = target: vacant 70S ribosomes from E. coli MRE600 (E. coli); test: as above
[8] = target: TolB75-RNC, formylated ribosome-nascent-chain complex carrying the 75 N-terminal amino acids of TolB (not stated | E. coli) (UniProt P0A855); test: stopped-flow fluorescence kinetics (association); PDF(Bpy) (300 nM) rapidly mixed with 70S ribosomes or TolB75-RNC (420 nM); buffer A; 10 °C; single-exponential fit, apparent rate at one concentration
[9] = target: vacant 70S ribosomes from E. coli MRE600 (E. coli); test: as above
[10] = target: vacant 70S ribosomes from E. coli MRE600 (E. coli); test: stopped-flow fluorescence kinetics (titration, global fit); PDF(Bpy) (100 nM) mixed with 70S ribosomes (0.5-2 µM); buffer A; 10 °C; global fit to a one-step binding model in KinTek Explorer; Kd,calc = k-1/k1
[11] = target: vacant 70S ribosomes from E. coli MRE600 (E. coli); test: stopped-flow fluorescence kinetics, extrapolated; rate constants measured at 10 °C, extrapolated to 37 °C by Eq. 3 with single-turnover deformylation of TolB75-RNC as the reference; Kd,calc from the extrapolated rate constants

Chain of UniProt P0A910 (P0A910 whole entry, looked up, one chain of several): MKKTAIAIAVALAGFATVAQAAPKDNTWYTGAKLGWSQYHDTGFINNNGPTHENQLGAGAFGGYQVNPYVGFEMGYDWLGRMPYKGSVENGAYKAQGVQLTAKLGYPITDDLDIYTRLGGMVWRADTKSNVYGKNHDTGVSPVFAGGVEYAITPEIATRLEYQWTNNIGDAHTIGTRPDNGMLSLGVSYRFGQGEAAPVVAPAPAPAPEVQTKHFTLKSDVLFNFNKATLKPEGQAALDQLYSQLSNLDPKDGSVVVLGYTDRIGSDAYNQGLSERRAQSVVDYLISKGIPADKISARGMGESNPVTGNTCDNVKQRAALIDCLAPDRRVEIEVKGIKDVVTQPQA
Chain of UniProt P0A6Y8 (P0A6Y8 whole entry, looked up, one chain of several): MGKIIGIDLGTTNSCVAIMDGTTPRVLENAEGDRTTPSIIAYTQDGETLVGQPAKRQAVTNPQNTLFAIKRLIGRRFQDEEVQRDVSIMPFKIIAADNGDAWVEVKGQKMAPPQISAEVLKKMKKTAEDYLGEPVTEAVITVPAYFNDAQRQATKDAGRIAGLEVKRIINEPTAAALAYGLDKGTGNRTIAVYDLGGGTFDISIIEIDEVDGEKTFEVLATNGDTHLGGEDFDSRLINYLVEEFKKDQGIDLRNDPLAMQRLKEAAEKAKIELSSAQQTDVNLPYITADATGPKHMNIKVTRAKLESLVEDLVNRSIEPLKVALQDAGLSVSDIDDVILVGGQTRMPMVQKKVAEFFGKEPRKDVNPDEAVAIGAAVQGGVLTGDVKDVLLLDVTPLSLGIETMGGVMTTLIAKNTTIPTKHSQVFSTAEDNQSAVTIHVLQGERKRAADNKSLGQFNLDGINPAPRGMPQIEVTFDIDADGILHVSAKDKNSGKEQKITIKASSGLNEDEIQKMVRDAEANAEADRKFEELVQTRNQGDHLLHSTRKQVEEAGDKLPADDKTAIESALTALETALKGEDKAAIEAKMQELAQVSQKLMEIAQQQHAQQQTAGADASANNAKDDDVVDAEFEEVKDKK
Chain of UniProt P0A7Y4 (P0A7Y4 whole entry, looked up, one chain of several): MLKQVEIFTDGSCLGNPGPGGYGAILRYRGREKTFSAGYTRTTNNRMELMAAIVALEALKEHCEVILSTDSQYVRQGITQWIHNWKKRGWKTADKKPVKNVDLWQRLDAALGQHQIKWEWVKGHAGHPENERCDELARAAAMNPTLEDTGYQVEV

KM of nascent-chain deformylation by PDF, multiple turnover, 37 °C (TLC of f[35S]Met and [35S]Met) [1]: 0.5 µM
KM of nascent-chain deformylation by PDF, multiple turnover, 37 °C (TLC of f[35S]Met and [35S]Met) [2]: 0.6 µM
KM of nascent-chain deformylation by PDF, multiple turnover, 37 °C (TLC of f[35S]Met and [35S]Met) [3]: 0.25 µM
KM of nascent-chain deformylation by PDF, multiple turnover, 37 °C (TLC of f[35S]Met and [35S]Met) [4]: 0.3 µM
B1: peptide deformylase (PDF), unlabeled, with C-terminal His6-tag (enzyme)
chain: MSVLQVLHIPDERLRKVAKPVEEVNAEIQRIVDDMFETMYAEEGIGLAATQVDIHQRIIVIDVSENRDERLVLINPELLEKSGETGIEEGCLSIPEQRALVPRAEKVKIRALDRDGKPFELEADGLLAICIQHEMDHLVGKLFMDYLSPLKQQRIRQKVEKLDRLKARA

Kd [5]: 2100 nM
koff [6]: 27 s⁻¹
koff [7]: 33 s⁻¹
apparent rate of binding at 420 nM RNC [8]: 40 s⁻¹
apparent rate of binding at 420 nM 70S ribosomes [9]: 44 s⁻¹
Kd [10]: 2100 nM
koff [10]: 29 s⁻¹
kon [10]: 1.4e+07 M⁻¹ s⁻¹
Kd [11]: 2000 nM
koff [11]: 70 s⁻¹
kon [11]: 4e+07 M⁻¹ s⁻¹
B2: PDF(Bpy), peptide deformylase labelled at the C-terminus with Bodipy-FL (enzyme)
chain: B1 chain
modifications: Bodipy-FL on the C-terminal peptide CSDSK-Bpy

— article PMC8712518
